Reference: patent publication US20250352661A1 (MYTHIC THERAPEUTICS, published 2025)
Residue numbers refer to the chain shown, from its start. Numbers in names are those of the source.

T1: Human LRRC15 Protein, His Tag (Acro Biosystems) (human, UniProt Q8TF66 22-538, limits assumed)
T1 construct: Bought protein with His tag
T1 sequence (looked up): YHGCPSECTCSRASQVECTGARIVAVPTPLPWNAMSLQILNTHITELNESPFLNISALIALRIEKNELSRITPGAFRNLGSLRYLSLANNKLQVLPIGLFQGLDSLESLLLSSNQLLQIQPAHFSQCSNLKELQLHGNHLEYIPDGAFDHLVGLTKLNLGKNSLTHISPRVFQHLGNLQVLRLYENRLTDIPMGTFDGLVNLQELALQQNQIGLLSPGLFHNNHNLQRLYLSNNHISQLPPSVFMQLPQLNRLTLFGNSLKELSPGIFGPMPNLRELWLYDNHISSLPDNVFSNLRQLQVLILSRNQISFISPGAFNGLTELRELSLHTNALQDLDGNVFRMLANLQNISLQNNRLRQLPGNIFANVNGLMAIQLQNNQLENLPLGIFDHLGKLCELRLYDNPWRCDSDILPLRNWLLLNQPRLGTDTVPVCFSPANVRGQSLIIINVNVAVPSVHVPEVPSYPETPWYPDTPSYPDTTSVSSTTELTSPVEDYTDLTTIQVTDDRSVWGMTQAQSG

T2: Human LRRC15 Protein, His Tag (Acro Biosystems) (human, UniProt Q8TF66 22-538, limits assumed)
T2 construct: not shown: His tag
T2 sequence (looked up): T1 sequence (looked up)

B1: MYT5742 (antibody, V domains shown)
VH: QQQLVESGGGLVKPGASLTLTCKASGFSFSGSYWICWVRQAPGKGLEWIGCINGGSLDITYYASWAKGRFTISKASSTTVTLQKTSLTAADTATYFCASDTSYTAYGNFYFNLWGPGTLVTVSS
VL: AQVLTQTASPVSAAVGGTVTINCQSSQSVLNNNWLAWYQQKPGQPPKLLIYDASSLASGVPSRFKGSGSGTQFTLTISDLESDDAATYYCQGEFSCGSADCNAFGGGTEVVVKG
notes: Parent of the rabbit 24D9 scan; chimeric, rabbit variable domains with human constant regions; also called 24D9; chimeric 24D9 RabMAb
B2: MYT7884 (antibody, V domains shown)
VH: B1 VH with F29H
VL: B1 VL
notes: rabbit 24D9 VH F29H; chimeric, human constant regions
B3: MYT7906 (antibody, V domains shown)
VH: B1 VH with W65H
VL: B1 VL
notes: rabbit 24D9 VH W65H; chimeric, human constant regions
B4: MYT7907 (antibody, V domains shown)
VH: B1 VH with A66H
VL: B1 VL
notes: rabbit 24D9 VH A66H; chimeric, human constant regions
B5: MYT7891 (antibody, V domains shown)
VH: B1 VH with C36H, C51S
VL: B1 VL
notes: rabbit 24D9 VH C36H; chimeric, human constant regions
B6: MYT7882 (antibody, V domains shown)
VH: B1 VH with F27H
VL: B1 VL
notes: rabbit 24D9 VH F27H; chimeric, human constant regions
B7: MYT7903 (antibody, V domains shown)
VH: B1 VH with Y62H
VL: B1 VL
notes: rabbit 24D9 VH Y62H; chimeric, human constant regions
B8: MYT7908 (antibody, V domains shown)
VH: B1 VH with K67H
VL: B1 VL
notes: rabbit 24D9 VH K67H; chimeric, human constant regions
B9: MYT7899 (antibody, V domains shown)
VH: B1 VH with D58H
VL: B1 VL
notes: rabbit 24D9 VH D58H; chimeric, human constant regions
B10: MYT7900 (antibody, V domains shown)
VH: B1 VH with I59H
VL: B1 VL
notes: rabbit 24D9 VH I59H; chimeric, human constant regions
B11: MYT7890 (antibody, V domains shown)
VH: B1 VH with I35H
VL: B1 VL
notes: rabbit 24D9 VH I35H; chimeric, human constant regions
B12: MYT7888 (antibody, V domains shown)
VH: B1 VH with Y33H
VL: B1 VL
notes: rabbit 24D9 VH Y33H; chimeric, human constant regions
B13: MYT7886 (antibody, V domains shown)
VH: B1 VH with G31H
VL: B1 VL
notes: rabbit 24D9 VH G31H; chimeric, human constant regions
B14: MYT7887 (antibody, V domains shown)
VH: B1 VH with S32H
VL: B1 VL
notes: rabbit 24D9 VH S32H; chimeric, human constant regions
B15: MYT7893 (antibody, V domains shown)
VH: B1 VH with I52H
VL: B1 VL
notes: rabbit 24D9 VH I52H; chimeric, human constant regions
B16: MYT7894 (antibody, V domains shown)
VH: B1 VH with N53H
VL: B1 VL
notes: rabbit 24D9 VH N53H; chimeric, human constant regions
B17: MYT7911 (antibody, V domains shown)
VH: B1 VH with S99H
VL: B1 VL
notes: rabbit 24D9 VH S99H; chimeric, human constant regions
B18: MYT7897 (antibody, V domains shown)
VH: B1 VH with S56H
VL: B1 VL
notes: rabbit 24D9 VH S56H; chimeric, human constant regions
B19: MYT7910 (antibody, V domains shown)
VH: B1 VH with A98H
VL: B1 VL
notes: rabbit 24D9 VH A98H; chimeric, human constant regions
B20: MYT7881 (antibody, V domains shown)
VH: B1 VH with G26H
VL: B1 VL
notes: rabbit 24D9 VH G26H; chimeric, human constant regions
B21: MYT7889 (antibody, V domains shown)
VH: B1 VH with W34H
VL: B1 VL
notes: rabbit 24D9 VH W34H; chimeric, human constant regions
B22: MYT7896 (antibody, V domains shown)
VH: B1 VH with G55H
VL: B1 VL
notes: rabbit 24D9 VH G55H; chimeric, human constant regions
B23: MYT7883 (antibody, V domains shown)
VH: B1 VH with S28H
VL: B1 VL
notes: rabbit 24D9 VH S28H; chimeric, human constant regions
B24: MYT7895 (antibody, V domains shown)
VH: B1 VH with G54H
VL: B1 VL
notes: rabbit 24D9 VH G54H; chimeric, human constant regions
B25: MYT7902 (antibody, V domains shown)
VH: B1 VH with Y61H
VL: B1 VL
notes: rabbit 24D9 VH Y61H; chimeric, human constant regions
B26: MYT7901 (antibody, V domains shown)
VH: B1 VH with T60H
VL: B1 VL
notes: rabbit 24D9 VH T60H; chimeric, human constant regions
B27: MYT7885 (antibody, V domains shown)
VH: B1 VH with S30H
VL: B1 VL
notes: rabbit 24D9 VH S30H; chimeric, human constant regions
B28: MYT7909 (antibody, V domains shown)
VH: B1 VH with G68H
VL: B1 VL
notes: rabbit 24D9 VH G68H; chimeric, human constant regions
B29: MYT7898 (antibody, V domains shown)
VH: B1 VH with L57H
VL: B1 VL
notes: rabbit 24D9 VH L57H; chimeric, human constant regions
B30: MYT7905 (antibody, V domains shown)
VH: B1 VH with S64H
VL: B1 VL
notes: rabbit 24D9 VH S64H; chimeric, human constant regions
B31: MYT7904 (antibody, V domains shown)
VH: B1 VH with A63H
VL: B1 VL
notes: rabbit 24D9 VH A63H; chimeric, human constant regions
B32: MYT7892 (antibody, V domains shown)
VH: B1 VH with C36S, C51H
VL: B1 VL
notes: rabbit 24D9 VH C51H; chimeric, human constant regions
B33: MYT7926 (antibody, V domains shown)
VH: B1 VH
VL: B1 VL with Q24H
notes: tested as culture supernatant; also called 24D9 VL Q24H
B34: MYT7931 (antibody, V domains shown)
VH: B1 VH
VL: B1 VL with V29H
notes: tested as culture supernatant; also called 24D9 VL V29H
B35: MYT7930 (antibody, V domains shown)
VH: B1 VH
VL: B1 VL with S28H
notes: tested as culture supernatant; also called 24D9 VL S28H
B36: MYT7933 (antibody, V domains shown)
VH: B1 VH
VL: B1 VL with N31H
notes: also called 24D9 VL N31H
B37: MYT7934 (antibody, V domains shown)
VH: B1 VH
VL: B1 VL with N32H
notes: tested as culture supernatant; also called 24D9 VL N32H
B38: MYT7929 (antibody, V domains shown)
VH: B1 VH
VL: B1 VL with Q27H
notes: tested as culture supernatant; also called 24D9 VL Q27H
B39: MYT7927 (antibody, V domains shown)
VH: B1 VH
VL: B1 VL with S25H
notes: tested as culture supernatant; also called 24D9 VL S25H
B40: MYT7932 (antibody, V domains shown)
VH: B1 VH
VL: B1 VL with L30H
notes: tested as culture supernatant; also called 24D9 VL L30H
B41: MYT7928 (antibody, V domains shown)
VH: B1 VH
VL: B1 VL with S26H
notes: tested as culture supernatant; also called 24D9 VL S26H

molecular target: T1, Human LRRC15 Protein, His Tag (Acro …); assay: BLI; dissociation pH 7.4 black, pH 5.4 grey [1/2); D00013 FIG. 2B (1/2]

| binding result | Binder |
| --- | --- |
| binds | B1 |
| no binding (tested: 50 nM LRRC15) | B2 |
| binds | B3 |
| binds | B4 |
| binds | B5 |
| binds | B6 |
| binds | B7 |
| binds | B8 |
| binds | B9 |
| binds | B10 |
| binds | B11 |
| binds | B12 |
| binds | B13 |
| binds | B14 |
| binds | B15 |
| binds | B16 |

| binding result | Binder |
| --- | --- |
| no binding (tested: 50 nM LRRC15) | B17 |
| binds | B18 |
| binds | B19 |
| binds | B20 |
| binds | B21 |
| binds | B22 |
| binds | B23 |
| binds | B24 |
| binds | B25 |
| binds | B26 |
| binds | B27 |
| binds | B28 |
| binds | B29 |
| binds | B30 |
| binds | B31 |
| binds | B32 |

molecular target: T2, Human LRRC15 Protein, His Tag (Acro …); assay: BLI; dissociation pH 7.4 black, pH 5.4 grey [D00016 FIG. 3B]

| binding result | Binder |
| --- | --- |
| binds | B33 |
| no binding (tested: 50 nM LRRC15) | B34 |
| binds | B35 |
| binds | B36 |
| binds | B37 |
| binds | B38 |
| binds | B39 |
| no binding (tested: 50 nM LRRC15) | B40 |
| binds | B41 |
